The assay addresses ROD (human) (UniProt P50748). The assay can be described thus: AUC.

In the case of ROD, P50748 1-2209, the stoichiometry N (commonly the number of molecules, sites or subunits per partner or assembly) was 2.

These data come from article PMC5379955.
